The experiment deals with T1, recombinant BAG3 full-length protein (UniProt O95817 2-575, limits assumed).
T1 construct: mature; also called rBAG3; E. Coli rBAG3
In words: method for the murine antibody not stated (Example 3, Octet). Background: In BLI a coated tip is dipped into the sample, and binding shifts an interference pattern.

T1 sequence (O95817 2-575 limits assumed): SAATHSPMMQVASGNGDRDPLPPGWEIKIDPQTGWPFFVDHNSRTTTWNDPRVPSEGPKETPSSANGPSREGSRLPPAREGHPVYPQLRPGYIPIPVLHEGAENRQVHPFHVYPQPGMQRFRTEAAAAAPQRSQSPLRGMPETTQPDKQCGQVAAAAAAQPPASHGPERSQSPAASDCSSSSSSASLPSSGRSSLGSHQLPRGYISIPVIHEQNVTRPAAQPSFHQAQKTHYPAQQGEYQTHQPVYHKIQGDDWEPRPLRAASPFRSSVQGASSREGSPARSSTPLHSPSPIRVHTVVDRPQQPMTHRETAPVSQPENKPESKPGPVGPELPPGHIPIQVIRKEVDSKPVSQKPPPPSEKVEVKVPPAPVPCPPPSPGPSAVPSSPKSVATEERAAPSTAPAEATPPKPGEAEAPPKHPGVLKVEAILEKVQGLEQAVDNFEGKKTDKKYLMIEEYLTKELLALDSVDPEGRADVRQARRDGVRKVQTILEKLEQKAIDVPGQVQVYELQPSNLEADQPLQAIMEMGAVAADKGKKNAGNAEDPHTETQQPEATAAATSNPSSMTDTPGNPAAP

B1: AC-2 murine antibody (antibody, V domains shown)
VH: EVQLQQSGAELVKPGASVKLSCTASGFNIKDTYMYWVKQRPEQGLEWIGGVDPANGNTRYDPKFQGKATLTADTSSSTAYLQLSSLTSEDTAVYYCGRDGAMDYWGQGTSVTVSS
VL: DIVMSQSPSSLAVSVGEKVTMSCKSSQSLLYSSNQKNYLAWHQQKPGQSPKLLIYWASTRESGVPDRFTGSGSGTDFTLTISSVKAEDLAIYYCQQYYTYPLTFGAGTKLELK
notes: Murine hybridoma antibody; also called anti-BAG3 mouse antibody (AC2); murine anti-BAG AC-2 antibody
In general, Kd refers to a measure of binding affinity in units of concentration. On to B1, for which the Kd was found to be 1 pM.

For the origin of these results see patent US20210122818A1 (BIOUNIVERSA S R L, published 2021).
